# Measurements: patent US20240117018A1
# Legend:
# Assay in all cases: cell-based or functional assay
# [1] = biological target: HIV-1 Env of pseudovirus 62357_14_D3_4589 (HIV-1)
# [2] = biological target: HIV-1 Env of pseudovirus 6240_08_TA5_4622 (HIV-1)
# [3] = biological target: HIV-1 Env of pseudovirus Du172.17 (HIV-1)
# [4] = biological target: HIV-1 Env of pseudovirus Ce0393_C3 (HIV-1)
# [5] = biological target: HIV-1 Env of pseudovirus ZM109F.PB4 (HIV-1)
# [6] = biological target: HIV-1 Env of pseudovirus Q259.d2.17 (HIV-1)
# [7] = biological target: HIV-1 Env of pseudovirus AC10.0.29 (HIV-1)
# [8] = biological target: HIV-1 Env of pseudovirus 6244_13_B5_4576 (HIV-1)
# [9] = biological target: HIV-1 Env of pseudovirus Ce2010_F5 (HIV-1)
# [10] = biological target: HIV-1 Env of pseudovirus RHPA4259.7 (HIV-1)
# [11] = biological target: HIV-1 Env of pseudovirus BF1266.431a (HIV-1)
# [12] = biological target: HIV-1 Env of pseudovirus CNE5 (HIV-1)
# [13] = biological target: HIV-1 Env of pseudovirus MS208.A1 (HIV-1)
# [14] = biological target: HIV-1 Env of pseudovirus CAP45.2.00.G3 (HIV-1)
# [15] = biological target: HIV-1 Env of pseudovirus ZM214M.PL15 (HIV-1)
# [16] = biological target: HIV-1 Env of pseudovirus ZM197M.PB7 (HIV-1)
# [17] = biological target: HIV-1 Env of pseudovirus CNE17 (HIV-1)
# [18] = biological target: HIV-1 Env of pseudovirus CNE58 (HIV-1)
# [19] = biological target: HIV-1 Env of pseudovirus Q842.d12 (HIV-1)
# [20] = biological target: HIV-1 Env of pseudovirus 7030102001E5(Rev-) (HIV-1)
# [21] = biological target: HIV-1 Env of pseudovirus ZM135M.PL10a (HIV-1)
# [22] = biological target: HIV-1 Env of pseudovirus ZM249M.PL1 (HIV-1)
# [23] = biological target: HIV-1 Env of pseudovirus TRJO4551.58 (HIV-1)
# [24] = biological target: HIV-1 Env of pseudovirus 1056_10_TA11_1826 (HIV-1)
# [25] = biological target: HIV-1 Env of pseudovirus CNE53 (HIV-1)
# [26] = biological target: HIV-1 Env of pseudovirus Du422.1 (HIV-1)
# [27] = biological target: HIV-1 Env of pseudovirus WEAU_d15_410_787 (HIV-1)
# [28] = biological target: HIV-1 Env of pseudovirus ZM53M.PB12 (HIV-1)
# [29] = biological target: HIV-1 Env of pseudovirus Ce2060_G9 (HIV-1)
# [30] = biological target: HIV-1 Env of pseudovirus Ce704809221_1B3 (HIV-1)
# [31] = biological target: HIV-1 Env of pseudovirus 249M B10 (HIV-1)
# [32] = biological target: HIV-1 Env of pseudovirus Q461.e2 (HIV-1)
# [33] = biological target: HIV-1 Env of pseudovirus 1006_11_C3_1601 (HIV-1)
# [34] = biological target: HIV-1 Env of pseudovirus 1012_11_TC21_3257 (HIV-1)
# [35] = biological target: HIV-1 Env of pseudovirus QH0692.42 (HIV-1)
# [36] = biological target: HIV-1 Env of pseudovirus CNE8 (HIV-1)
# [37] = biological target: HIV-1 Env of pseudovirus HIV-0013095-2.11 (HIV-1)
# [38] = biological target: HIV-1 Env of pseudovirus ZM233M.PB6 (HIV-1)
substance,measurement,setting,value
PGT151 (antibody),neutralization IC50,[1],0.004 µg/mL
same,neutralization IC80,[1],0.023 µg/mL
same,neutralization IC50,[2],0.046 µg/mL
same,neutralization IC80,[2],0.42 µg/mL
same,neutralization IC50,[3],0.003 µg/mL
same,neutralization IC80,[3],0.013 µg/mL
same,neutralization IC50,[4],> 50 µg/mL
same,neutralization IC80,[4],> 50 µg/mL
same,neutralization IC50,[5],0.609 µg/mL
same,neutralization IC80,[5],> 50 µg/mL
same,neutralization IC50,[6],> 50 µg/mL
same,neutralization IC80,[6],> 50 µg/mL
same,neutralization IC50,[7],0.007 µg/mL
same,neutralization IC80,[7],0.023 µg/mL
same,neutralization IC50,[8],> 50 µg/mL
same,neutralization IC80,[8],> 50 µg/mL
same,neutralization IC50,[9],> 50 µg/mL
same,neutralization IC80,[9],> 50 µg/mL
same,neutralization IC50,[10],0.006 µg/mL
same,neutralization IC80,[10],0.033 µg/mL
same,neutralization IC50,[11],> 50 µg/mL
same,neutralization IC80,[11],> 50 µg/mL
same,IC50 (Titer in TZM.bl cells),[12],> 50 µg/mL
same,IC80 (Titer in TZM.bl cells),[12],> 50 µg/mL
same,neutralization IC50,[13],< 0.001 µg/mL
same,neutralization IC80,[13],0.003 µg/mL
same,neutralization IC50,[14],0.007 µg/mL
same,neutralization IC80,[14],> 50 µg/mL
same,neutralization IC50,[15],0.008 µg/mL
same,neutralization IC80,[15],0.045 µg/mL
same,neutralization IC50,[16],0.003 µg/mL
same,neutralization IC80,[16],0.033 µg/mL
same,neutralization IC50,[17],0.093 µg/mL
same,neutralization IC80,[17],> 50 µg/mL
same,neutralization IC50,[18],0.004 µg/mL
same,neutralization IC80,[18],0.016 µg/mL
same,neutralization IC50,[19],0.001 µg/mL
same,neutralization IC80,[19],0.014 µg/mL
same,neutralization IC50,[20],0.001 µg/mL
same,neutralization IC80,[20],0.011 µg/mL
same,neutralization IC50,[21],> 50 µg/mL
same,neutralization IC80,[21],> 50 µg/mL
same,neutralization IC50,[22],0.004 µg/mL
same,neutralization IC80,[22],0.015 µg/mL
same,neutralization IC50,[23],0.496 µg/mL
same,neutralization IC80,[23],4.22 µg/mL
same,neutralization IC50,[24],0.008 µg/mL
same,neutralization IC80,[24],0.048 µg/mL
same,neutralization IC50,[25],> 50 µg/mL
same,neutralization IC80,[25],> 50 µg/mL
same,neutralization IC50,[26],4.6 µg/mL
same,neutralization IC80,[26],> 50 µg/mL
same,neutralization IC50,[27],0.01 µg/mL
same,neutralization IC80,[27],> 50 µg/mL
same,neutralization IC50,[28],> 50 µg/mL
same,neutralization IC80,[28],> 50 µg/mL
same,neutralization IC50,[29],0.135 µg/mL
same,neutralization IC80,[29],> 50 µg/mL
same,neutralization IC50,[30],> 50 µg/mL
same,neutralization IC80,[30],> 50 µg/mL
same,neutralization IC50,[31],0.007 µg/mL
same,neutralization IC80,[31],0.023 µg/mL
same,neutralization IC50,[32],12.6 µg/mL
same,neutralization IC80,[32],> 50 µg/mL
same,neutralization IC50,[33],2.89 µg/mL
same,neutralization IC80,[33],> 50 µg/mL
same,neutralization IC50,[34],> 50 µg/mL
same,neutralization IC80,[34],> 50 µg/mL
same,neutralization IC50,[35],0.029 µg/mL
same,neutralization IC80,[35],0.522 µg/mL
same,IC50 (Titer in TZM.bl cells),[36],> 50 µg/mL
same,IC80 (Titer in TZM.bl cells),[36],> 50 µg/mL
same,neutralization IC50,[37],> 50 µg/mL
same,neutralization IC80,[37],> 50 µg/mL
same,neutralization IC50,[38],0.027 µg/mL
same,neutralization IC80,[38],5.16 µg/mL
